Molecular target: T1, HPV 16 E6 peptide on HLA-A*02:01 (human)
T1 peptide: TIHDIILECV
Test: multimer staining

B1: E6 TCR (TCR, V domains shown)
Valpha: GQQLNQSPQSMFIQEGEDVSMNCTSSSIFNTWLWYKQDPGEGPVLLIALYKAGELTSNGRLTAQFGITRKDSFLNISASIPSDVGIYFCAGHPSSNSGYALNFGKGTSLLVTP
Vbeta: GAGVSQSPRYKVTKRGQDVALRCDPISGHVSLYWYRQALGQGPEFLTYFNYEAQQDKSGLPNDRFSAERPEGSISTLTIQRTEQRDSAMYRCASSSQTGARTDTQYFGPGTRLTVL
- binding result: recognises
